Measurements published in publication PMC7939390 (The Journal of Biological Chemistry, 2020).
Changes are numbered by the printed parent chain. In names and notes the source's numbering stands.

How the values were obtained:
PBP1b^R141A/R397A = type: biochemical, Escherichia coli; settings: dansyl-lipid II, continuous fluorescence assay; means ± S.D. of three experiments
Method: The error bars represent the values as means ± S.D. of three experiments.
(§3) The GTase activity assays with dansyl-lipid II as substrate were performed in a medium binding black 96-well microplate (Greiner Bio One) as described ([57]). The samples contained 10 μM dansyl-lipid II, 50 mM HEPES-NaOH, pH 7.5, 200 mM NaCl, 10 mM CaCl2, 0.085% of decyl-PEG, 20% of DMSO, and 1 unit of N-acetylmuramidase of Streptomyces globisporus (Sigma). […] The reactions were initiated by the addition of 30 nM PBP1bγ (100 nM for PBP1a) and monitored by following the fluorescence decrease over 20 min at 30 °C using an Infinite 200 PRO microplate reader (Tecan, Männedorf, Switzerland) with excitation wavelength at 340 nm and emission at 520 nm.
activity of the PBP1bWT and PBP1bR141A-R397A was monitored in the presence or the absence of LpoB by
continuous fluorescence assay using dansyl-lipid II (LII) as substrate. The error bars represent the values

[1] = thermal stability of PBP1b^R141A-R397A at 42 °C: Bocillin binding; settings: 1 h at 42 °C versus 30 °C, 7 µg protein, Bocillin FL 50 µM 30 min, SDS-PAGE (Fig. S1B)
Method: (§1) Figure S1. Stability of the double mutant PBP1bR141A-R397A at 42°C. (A) The purified protein was incubated at 30°C or 42°C for 1 h and its GTase activity was monitored at the same temperature by continuous fluorescence assay using dansyl -lipid II (LII) as substrate. The error bars represent the values as mean ± s.d. of three experiments. (B) after 1h at 30°C or 42°C the protein ( 7 µg) was labelled with Bocillin FL (50 µM) for 30 min at the same temperature and analyzed by SDS-PAGE followed by fluorescence imaging (right) and Coomassie blue staining (left). 1bWT and 1bRR depict PBP1b wild-type and PBP1b double mutant R141A-R397A, respectively. M, Molecular mass marker. […]

[2] = tested on: E. coli EJ801 (ΔponB-ponA^ts); assay: microscopy of EJ801 cells, cell morphology and length; type: cell-based, Escherichia coli; parameters: cell length L: unit not given here
Method: Samples were taken from the complementation cultures (42 °C) at different time (1-h intervals), and the cells were fixed as described ([63]). Photographs were taken with a cooled AxioCam MRm (Zeiss) mounted on a Zeiss Axio Imager. Z1 microscope, and the images were acquired in phase-contrast mode using the AxioVision Rel. 4.5 (Zeiss) software. The cell morphologies analysis were determined using ImageJ software (RRID:SCR_003070) running under plugin ObjectJ (RRID:SCR_019190).

[3] = tested on: E. coli EJ801 (ΔponB-ponA^ts); assay: complementation assay of E. coli EJ801 (ΔponB-ponA^ts); type: cell-based, Escherichia coli; settings: 42 °C, 4 h, plasmids carrying ponB or mutants, LB 10 g/liter or low salt 0.5 g/liter comparable
Method: To test the activity of the PBP1b mutants in vivo, we tested their ability to complement E. coli strain EJ801, which lacks PBP1b and has a thermosensitive PBP1a ([33]). EJ801 cells were transformed with the corresponding plasmids and grown in LB at 30 °C with 50 µg/ml kanamycin. The preculture was then diluted in 30 ml of fresh LB ([…] NaCl) or LB with […] NaCl medium to an A600nm value of 0.04 and grown at 30 °C until A600nm = 0.1–0.3, and the absorbance of the culture was monitored for 4 h at 42 °C.

[4] = thermal stability of PBP1b^R141A-R397A at 42 °C: GTase activity; type: biochemical; settings: 1 h at 42 °C versus 30 °C, dansyl-lipid II, mean ± s.d. of three experiments (Fig. S1A)
Method: as §1

TPase domain of PBP1b = settings: 2.0 mM S2d, 1.2 μM PBP1b, FtsN 2 μM, 50 mM phosphate pH 7.0, 37 °C, 3.2 mM 4,4′-dithiodipyridine, absorbance 330 nm; representative of three independent experiments
Method: The activity of the TPase domain of PBP1b was measured in the presence of S2d (analog of the peptide moiety) as a mimic of donor substrates as previously described ([58], [59]). The assay was performed in a UV-Star 96-well microplate (Greiner Bio One) at 37 °C in the presence of 50 mM phosphate buffer, pH 7.0, 2.0 mM S2d, 3.2 mM 4,4′-dithiodipyridine, and 1.2 μM PBP1b. The absorbance at 330 nm was monitored with an Infinite M200 Pro microplate reader (Tecan, Männedorf, Switzerland). FtsN was used at 2 μM to test its effect on the PBP1b activity.

PBP3 = settings: cited from earlier work
From the text: (§2) Bacteria generally have at least one bifunctional (GTase/TPase) PBP of class A and one monofunctional (TPase only) PBP of class B ([2], [13]). E. coli contains three aPBPs: PBP1a, 1b, and 1c, and two bPBPs: PBP2 and PBP3, the latter being involved in cell elongation and division, respectively ([14]). PBP1a and PBP1b are major PG synthases and at least one of them is required for cell viability ([15]).

PBP1b [5] = target: T1, PBP1b (Escherichia coli, UniProt P02919); settings: peptide versus full-length FtsN protein; 10 μM dansyl-lipid II, 30 nM PBP1bγ, pH 7.5, 30 °C
T1 sequence (P02919 1-799 isoform P02919-2): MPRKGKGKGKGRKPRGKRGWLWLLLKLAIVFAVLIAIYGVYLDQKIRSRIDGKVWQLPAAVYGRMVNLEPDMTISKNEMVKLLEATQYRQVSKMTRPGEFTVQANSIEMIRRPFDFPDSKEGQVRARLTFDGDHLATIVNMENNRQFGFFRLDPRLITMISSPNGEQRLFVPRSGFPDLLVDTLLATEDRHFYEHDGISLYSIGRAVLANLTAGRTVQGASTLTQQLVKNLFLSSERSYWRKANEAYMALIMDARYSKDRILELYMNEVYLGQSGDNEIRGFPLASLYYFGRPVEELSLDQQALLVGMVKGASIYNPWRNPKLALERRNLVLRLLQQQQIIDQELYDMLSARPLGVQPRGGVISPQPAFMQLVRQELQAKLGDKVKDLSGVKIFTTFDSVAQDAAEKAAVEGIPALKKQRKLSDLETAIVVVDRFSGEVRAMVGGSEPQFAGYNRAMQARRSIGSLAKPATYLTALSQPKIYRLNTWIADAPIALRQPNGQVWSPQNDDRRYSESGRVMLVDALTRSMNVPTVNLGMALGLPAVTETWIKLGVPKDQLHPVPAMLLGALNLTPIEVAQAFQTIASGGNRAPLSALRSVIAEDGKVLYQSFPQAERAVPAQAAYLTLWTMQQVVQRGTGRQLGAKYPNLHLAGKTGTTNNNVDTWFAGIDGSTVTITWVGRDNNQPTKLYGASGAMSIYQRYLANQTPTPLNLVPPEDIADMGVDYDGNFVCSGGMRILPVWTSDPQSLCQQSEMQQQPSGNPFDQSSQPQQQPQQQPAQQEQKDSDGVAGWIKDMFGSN
Method: as §3

FtsBLQ = settings: cited from earlier work
From the text: In contrast, no significant change in the FA sig ...

PBP1b [6] = target: T1, PBP1b; settings: compared with the WT protein; cited from earlier work
From the text: The stimulation of PBP1b in vitro by FtsN is well-established ([5], [28]).

PBP1b [7] = target: T1, PBP1b; settings: cited from earlier work
From the text: as §2

E. coli = settings: residue change W83L; cited from earlier work

B1: PBP1b^R141A/R397A (protein)
chain: MAGNDREPIGRKGKPTRPVKQKVSRRRYEDDDDYDDYDDYEDEEPMPRKGKGKGKGRKPRGKRGWLWLLLKLAIVFAVLIAIYGVYLDQKIRSRIDGKVWQLPAAVYGRMVNLEPDMTISKNEMVKLLEATQYRQVSKMTAPGEFTVQANSIEMIRRPFDFPDSKEGQVRARLTFDGDHLATIVNMENNRQFGFFRLDPRLITMISSPNGEQRLFVPRSGFPDLLVDTLLATEDRHFYEHDGISLYSIGRAVLANLTAGRTVQGASTLTQQLVKNLFLSSERSYWRKANEAYMALIMDARYSKDRILELYMNEVYLGQSGDNEIRGFPLASLYYFGRPVEELSLDQQALLVGMVKGASIYNPWRNPKLALERRNLVLRLLQQQQIIDQELYDMLSAAPLGVQPRGGVISPQPAFMQLVRQELQAKLGDKVKDLSGVKIFTTFDSVAQDAAEKAAVEGIPALKKQRKLSDLETAIVVVDRFSGEVRAMVGGSEPQFAGYNRAMQARRSIGSLAKPATYLTALSQPKIYRLNTWIADAPIALRQPNGQVWSPQNDDRRYSESGRVMLVDALTRSMNVPTVNLGMALGLPAVTETWIKLGVPKDQLHPVPAMLLGALNLTPIEVAQAFQTIASGGNRAPLSALRSVIAEDGKVLYQSFPQAERAVPAQAAYLTLWTMQQVVQRGTGRQLGAKYPNLHLAGKTGTTNNNVDTWFAGIDGSTVTITWVGRDNNQPTKLYGASGAMSIYQRYLANQTPTPLNLVPPEDIADMGVDYDGNFVCSGGMRILPVWTSDPQSLCQQSEMQQQPSGNPFDQSSQPQQQPQQQPAQQEQKDSDGVAGWIKDMFGSN
PBP1b^R141A/R397A
  GTase activity of mutant compared with WT protein: minor or no difference in the GTase activity compared with the WT protein
[1]
  Bocillin-binding activity after incubation at 42 °C: not affected
[2]; EJ801 after 1 h at 42 °C, n = 250, phase contrast, ImageJ/ObjectJ
  cell length L: 6.14 ± 1.84
[2]; EJ801 at 42 °C (double mutant: after 1 h)
  cell phenotype: mild elongated phenotype
[3]
  restoration of growth of EJ801 at the nonpermissive temperature: unable to rescue E. coli EJ801 at 42 °C
[4]
  GTase activity after incubation at 42 °C: not affected

B2: FtsN: full-length E. coli cell division protein FtsN (protein)
chain: MAQRDYVRRSQPAPSRRKKSTSRKKQRNLPAVSPAMVAIAAAVLVTFIGGLYFITHHKKEESETLQSQKVTGNGLPPKPEERWRYIKELESRQPGVRAPTEPSAGGEVKTPEQLTPEQRQLLEQMQADMRQQPTQLVEVPWNEQTPEQRQQTLQRQRQAQQLAEQQRLAQQSRTTEQSWQQQTRTSQAAPVQAQPRQSKPASSQQPYQDLLQTPAHTTAQSKPQQAAPVARAADAPKPTAEKKDERRWMVQCGSFRGAEQAETVRAQLAFEGFDSKITTNNGWNRVVIGPVKGKENADSTLNRLKMAGHTNCIRLAAGG
modifications: left off: His, end not stated, kept
TPase domain of PBP1b
  effect on TPase activity of PBP1b (S2d hydrolysis): no effect
PBP3
  effect on the activity of PBP3 (literature): no effect on the activity of PBP3
PBP1b [5]
  concentration required for stimulation of the GTase activity of PBP1b: ~1 µM
FtsBLQ
  interaction with FtsBLQ (literature): absence of strong interaction

B3: FtsN^W83L (protein, UniProt P29131 1-319, looked up, variant W83L)
Cell division protein FtsN: B2 chain with W83L
PBP1b [6]
  interaction with PBP1b (literature): reduced compared with the WT protein
PBP1b [7]
  stimulation of PBP1b activity in vitro (literature): less able to stimulate PBP1b activity
  suppression of FtsBLQ-mediated inhibition of PBP1b GTase activity (literature): less able to stimulate PBP1b activity and to suppress FtsBLQ-mediated inhibition of PBP1b GTase activity in vitro
E. coli
  FtsN activity in vivo (literature): impairs FtsN activity in vivo
